Fold decline of binding affinity compared to RBD WT data for two substances are collected here from publication doi:10.1101/2025.06.05.658000.

Assay [1] has as its target HLA-DR (DRA1*01:01 / DRB1*04:05), soluble knob-into-hole Fc heterodimer (human). The assay is described as follows: ELISA. On the technique in general: In an ELISA, binding on a coated surface is turned into a signal by an enzyme label.
Assay [2] addresses HLA-DR (DRA1*01:01 / DRB1*11:04), soluble knob-into-hole Fc heterodimer (human). The assay is described as follows: ELISA.

Regarding “SARS-CoV-2 RBD peptide RBD447-461 of the BA.2.86 variant (from UniProt P0DTC2 447-461)”, the fold decline of binding affinity compared to RBD WT in assay [1] and in assay [2] was > 16 fold throughout.
“SARS-CoV-2 RBD peptide RBD447-461 of the Omicron BA.5 variant (from UniProt P0DTC2 447-461)”: the fold decline of binding affinity compared to RBD WT in assay [1] and in assay [2] was > 16 fold in each case.
